Assay results taken from PMC10136936.

Biological target: Recombinant hemagglutinin from influenza A/California/04/2009 (H1N1), amino acids 1-519 (Influenza A/California/04/2009 (H1N1)) (UniProt C3W5S1)
Experiment: SEC

With “Recombinant hemagglutinin from influenza A/California/04/2009 (H1N1), amino acids 1-519 (from UniProt C3W5S1 1-519) (domain or fragment)” the stoichiometry N was 3.
